Measured values from US20200199204A1.

Columns and labels:
Experiment in all cases: cell-based or functional assay
[1] = molecular target: HIV-1 Env of ZM135.10a (HIV-1)
[2] = molecular target: HIV-1 Env of 3016.V5.c36 (HIV-1)
[3] = molecular target: HIV-1 Env of QH0692.42 (HIV-1)
[4] = molecular target: HIV-1 Env of CAP45.G3 (HIV-1)
[5] = molecular target: HIV-1 Env of PVO.04 (HIV-1)
[6] = molecular target: HIV-1 Env of KER2008.12 (HIV-1)
[7] = molecular target: HIV-1 Env of Q769.d22 (HIV-1)
[8] = molecular target: HIV-1 Env of Q461.e2 (HIV-1)
[9] = molecular target: HIV-1 Env of RW020.2 (HIV-1)
[10] = molecular target: HIV-1 Env of AC10.29 (HIV-1)
[11] = molecular target: HIV-1 Env of TH976.17 (HIV-1)
[12] = molecular target: HIV-1 Env of MB539.2B7 (HIV-1)
[13] = molecular target: HIV-1 Env of 96ZM651.02 (HIV-1)
[14] = molecular target: HIV-1 Env of REJO.67 (HIV-1)
[15] = molecular target: HIV-1 Env of TRJO.58 (HIV-1)
[16] = molecular target: HIV-1 Env of TRO.11 (HIV-1)
[17] = molecular target: HIV-1 Env of RHPA.7 (HIV-1)
[18] = molecular target: HIV-1 Env of C1080.c3 (HIV-1)
[19] = molecular target: HIV-1 Env of BG505.w6m (HIV-1)
[20] = molecular target: HIV-1 Env of DU422.01 (HIV-1)
[21] = molecular target: HIV-1 Env of Q842.d12 (HIV-1)
[22] = molecular target: HIV-1 Env of THRO.18 (HIV-1)
[23] = molecular target: HIV-1 Env of WITO.33 (HIV-1)
[24] = molecular target: HIV-1 Env of CAP256.PI (HIV-1)
[25] = molecular target: HIV-1 Env of Q23.17 (HIV-1)
[26] = molecular target: HIV-1 Env of CAP256.SU (HIV-1)
[27] = molecular target: HIV-1 Env of KER2018.11 (HIV-1)
[28] = molecular target: HIV-1 Env of CAP210.E8 (HIV-1)
[29] = molecular target: HIV-1 Env of DU172.17 (HIV-1)
[30] = molecular target: HIV-1 Env of ZM233.6 (HIV-1)
[31] = molecular target: HIV-1 Env of CNE3 (HIV-1)
[32] = molecular target: HIV-1 Env of 6535.3 (HIV-1)
[33] = molecular target: HIV-1 Env of MB201 (HIV-1)
[34] = molecular target: HIV-1 Env of Q259.d2.17 (HIV-1)
[35] = molecular target: HIV-1 Env of CAP244.D3 (HIV-1)
[36] = molecular target: HIV-1 Env of ZM197.7 (HIV-1)
[37] = molecular target: HIV-1 Env of 191821.E6.1 (HIV-1)
[38] = molecular target: HIV-1 Env of ZM249.1 (HIV-1)
[39] = molecular target: HIV-1 Env of CM244.ec1 (HIV-1)
[40] = molecular target: HIV-1 Env of SC422.8 (HIV-1)
[41] = molecular target: HIV-1 Env of ZM214.15 (HIV-1)
[42] = molecular target: HIV-1 Env of DU156.12 (HIV-1)
[43] = molecular target: HIV-1 Env of ZM109.4 (HIV-1)
[44] = molecular target: HIV-1 Env of ZM53.12 (HIV-1)
[45] = molecular target: HIV-1 Env of Q168.a2 (HIV-1)
[46] = molecular target: HIV-1 Env of 0260.v5.c36 (HIV-1)
[47] = molecular target: HIV-1 Env of UG037.8 (HIV-1)
[48] = molecular target: HIV-1 Env of 6405.v4.c34 (HIV-1)
[49] = molecular target: HIV-1 Env of CAAN.A2 (HIV-1)

## CAP256-VRC26.13 (antibody)
[1]
  IC50: > 50 µg/mL
[2]
  IC50: 3.74 µg/mL
[3]
  IC50: > 50 µg/mL
[4]
  IC50: > 50 µg/mL
[5]
  IC50: > 50 µg/mL
[6]
  IC50: > 50 µg/mL
[7]
  IC50: > 50 µg/mL
[8]
  IC50: > 50 µg/mL
[9]
  IC50: > 50 µg/mL
[10]
  IC50: > 50 µg/mL
[11]
  IC50: > 50 µg/mL
[12]
  IC50: > 50 µg/mL
[13]
  IC50: > 50 µg/mL
[14]
  IC50: > 50 µg/mL
[15]
  IC50: > 50 µg/mL
[16]
  IC50: > 50 µg/mL
[17]
  IC50: > 50 µg/mL
[18]
  IC50: > 50 µg/mL
[19]
  IC50: > 50 µg/mL
[20]
  IC50: > 50 µg/mL
[21]
  IC50: > 50 µg/mL
[22]
  IC50: > 50 µg/mL
[23]
  IC50: > 50 µg/mL
[24]
  IC50: > 50 µg/mL
[25]
  IC50: > 50 µg/mL
[26]
  IC50: 0.019 µg/mL
[27]
  IC50: > 50 µg/mL
[28]
  IC50: 0.094 µg/mL
[29]
  IC50: > 50 µg/mL
[30]
  IC50: > 50 µg/mL
[31]
  IC50: > 50 µg/mL
[32]
  IC50: > 50 µg/mL
[33]
  IC50: > 50 µg/mL
[34]
  IC50: > 50 µg/mL
[35]
  IC50: > 50 µg/mL
[36]
  IC50: > 50 µg/mL
[37]
  IC50: > 50 µg/mL
[38]
  IC50: > 50 µg/mL
[39]
  IC50: > 50 µg/mL
[40]
  IC50: > 50 µg/mL
[41]
  IC50: > 50 µg/mL
[42]
  IC50: > 50 µg/mL
[43]
  IC50: > 50 µg/mL
[44]
  IC50: 0.039 µg/mL
[45]
  IC50: > 50 µg/mL
[46]
  IC50: > 50 µg/mL
[47]
  IC50: > 50 µg/mL
[48]
  IC50: > 50 µg/mL
[49]
  IC50: > 50 µg/mL

## CAP256-VRC26.14 (antibody)
[1]
  IC50: > 50 µg/mL
[2]
  IC50: 0.012 µg/mL
[3]
  IC50: > 50 µg/mL
[4]
  IC50: > 50 µg/mL
[5]
  IC50: > 50 µg/mL
[6]
  IC50: > 50 µg/mL
[7]
  IC50: > 50 µg/mL
[8]
  IC50: > 50 µg/mL
[9]
  IC50: > 50 µg/mL
[10]
  IC50: > 50 µg/mL
[11]
  IC50: > 50 µg/mL
[12]
  IC50: > 50 µg/mL
[13]
  IC50: > 50 µg/mL
[14]
  IC50: > 50 µg/mL
[15]
  IC50: > 50 µg/mL
[16]
  IC50: > 50 µg/mL
[17]
  IC50: > 50 µg/mL
[18]
  IC50: 0.779 µg/mL
[19]
  IC50: 0.75 µg/mL
[20]
  IC50: 49 µg/mL
[21]
  IC50: > 50 µg/mL
[22]
  IC50: > 50 µg/mL
[23]
  IC50: > 50 µg/mL
[24]
  IC50: > 50 µg/mL
[25]
  IC50: > 50 µg/mL
[26]
  IC50: 0.004 µg/mL
[27]
  IC50: 0.03 µg/mL
[28]
  IC50: 0.012 µg/mL
[29]
  IC50: > 50 µg/mL
[30]
  IC50: 0.028 µg/mL
[31]
  IC50: > 50 µg/mL
[32]
  IC50: > 50 µg/mL
[33]
  IC50: > 50 µg/mL
[34]
  IC50: 2.13 µg/mL
[35]
  IC50: > 50 µg/mL
[36]
  IC50: 4.96 µg/mL
[37]
  IC50: 3.36 µg/mL
[38]
  IC50: > 50 µg/mL
[39]
  IC50: 6.16 µg/mL
[40]
  IC50: > 50 µg/mL
[41]
  IC50: > 50 µg/mL
[42]
  IC50: > 50 µg/mL
[43]
  IC50: > 50 µg/mL
[44]
  IC50: 0.006 µg/mL
[45]
  IC50: > 50 µg/mL
[46]
  IC50: > 50 µg/mL
[47]
  IC50: > 50 µg/mL
[48]
  IC50: > 50 µg/mL
[49]
  IC50: > 50 µg/mL

## CAP256-VRC26.15 (antibody)
[1]
  IC50: > 50 µg/mL
[2]
  IC50: 0.16 µg/mL
[3]
  IC50: > 50 µg/mL
[4]
  IC50: > 50 µg/mL
[5]
  IC50: 30 µg/mL
[6]
  IC50: > 50 µg/mL
[7]
  IC50: > 50 µg/mL
[8]
  IC50: 19.9 µg/mL
[9]
  IC50: > 50 µg/mL
[10]
  IC50: > 50 µg/mL
[11]
  IC50: > 50 µg/mL
[12]
  IC50: > 50 µg/mL
[13]
  IC50: > 50 µg/mL
[14]
  IC50: > 50 µg/mL
[15]
  IC50: > 50 µg/mL
[16]
  IC50: > 50 µg/mL
[17]
  IC50: > 50 µg/mL
[18]
  IC50: > 50 µg/mL
[19]
  IC50: 11.7 µg/mL
[20]
  IC50: 0.153 µg/mL
[21]
  IC50: 9.35 µg/mL
[22]
  IC50: > 50 µg/mL
[23]
  IC50: > 50 µg/mL
[24]
  IC50: > 50 µg/mL
[25]
  IC50: 0.338 µg/mL
[26]
  IC50: 0.008 µg/mL
[27]
  IC50: 0.04 µg/mL
[28]
  IC50: 0.019 µg/mL
[29]
  IC50: > 50 µg/mL
[30]
  IC50: 0.192 µg/mL
[31]
  IC50: > 50 µg/mL
[32]
  IC50: > 50 µg/mL
[33]
  IC50: > 50 µg/mL
[34]
  IC50: 0.657 µg/mL
[35]
  IC50: > 50 µg/mL
[36]
  IC50: 14.6 µg/mL
[37]
  IC50: > 50 µg/mL
[38]
  IC50: > 50 µg/mL
[39]
  IC50: 0.112 µg/mL
[40]
  IC50: > 50 µg/mL
[41]
  IC50: > 50 µg/mL
[42]
  IC50: 10.4 µg/mL
[43]
  IC50: > 50 µg/mL
[44]
  IC50: 0.014 µg/mL
[45]
  IC50: > 50 µg/mL
[46]
  IC50: > 50 µg/mL
[47]
  IC50: > 50 µg/mL
[48]
  IC50: > 50 µg/mL
[49]
  IC50: > 50 µg/mL
